Entries after “also recorded” stand apart in the source; their conditions may differ. Marks after values point to notes of the source that are not given here.
Columns and labels:
human fIIa (thrombin) = molecular target: T1, human fIIa (thrombin) (Homo sapiens, UniProt P00734); assay: Chromogenic assay, fIIa (thrombin); assay type: biochemical
T1 construct: Human coagulation factors IIa (thrombin), Xa, XIa, XIIa, EGR-fXa; purchased Haematologic Technologies Inc (United States)
Excerpt: (§1) The recombinant anticoagulant polypeptides in the present invention were expressed in E. coli and purified in our laboratory, of which the activities against coagulation factors were investigated by chromogenic assays. Human coagulation factors IIa (thrombin), Xa, XIa, XIIa, EGR-fXa were products of Haematologic Technologies Inc (United States). Recombinant fVIIa was products of Novo-Nordisk (Denmark). Recombinant soluble tissue factor (sTF) was purchased from Protgen (Beijing, China). The following chromogenic substrates were used for these coagulation factor assays: S2765 for human fXa, S2288 for human fVIIa and fIIa, 52366 for human fXIa and fXIIa, respectively.
(§2) The chromogenic assays were carried out in a total reaction volume of 100 μl in individual wells of a 96-well microtiter plate. 50 μl fIIa, fXa, fXIa, or fXIIa (final concentration: 1 nM) was incubated with 10 μl recombinant anticoagulant polypeptide at various concentrations (or PBS control group) Assays for the detection activity of fVIIa: 50 μl fVIIa+TF (1 μM) and EGR-fXa (final concentration 500 nM) was incubated for 15 mins at 25° C., respectively. After the addition of 40 μl of prewarmed chromogenic substrate to a final concentration of 400 μM, the changes of absorbance at 405 nm were monitored by using an E1x808 kinetic microtiter reader. The data were used to calculate the velocities of response.

human fXIa = molecular target: T2, human fXIa (Homo sapiens, UniProt P03951); assay: Chromogenic assay, fXIa; assay type: biochemical
T2 construct: Human coagulation factors IIa (thrombin), Xa, XIa, XIIa, EGR-fXa; purchased Haematologic Technologies Inc (United States)
Excerpt: as §1, §2

SD rats [1] = assay: Rat arterio-venous shunt thrombus formation model; assay type: in vivo
Protocol: 50 SPF grade male SD rats (provided by the laboratory animal center of Guangdong Medical College, 300-350 g body weight) were randomly divided into saline control group, positive control group (100 U·kg^−1 heparin sodium, Shanghai No. 1 Biochemical & Pharmaceutical Co. Ltd), and rNAPT-1 low dose (100 μg·kg^−1), middle dose (1 mg·kg^−1), high dose group (5 mg·kg^−1), 10 rats each group, respectively. These rats were anaesthetized with 10% chloral hydrate (250 mg/kg) by intraperitoneal injection. The right common carotid artery and left external jugular vein was exposed and dissected bluntly from the surrounding tissue after a surgical incision. One end of a polyethylene pipe (1.5 mm of diameter, 22 cm of length) with a 5 cm length of No. 4 operation suture in it and filled with 50 U/mL heparin solution was inserted into the right common carotid artery, and the other end was inserted into the left external […] vein. 5 min after tail intravenous injection of drugs, the artery clamp was opened, and blood flow from the right common carotid artery to the left external jugular vein through the polyethylene pipe. After 15 min of blood flow, the suture line was quickly removed and weighed. The net weight of thrombus is total weight minus suture weight; inhibition rate=(wet weight of thrombus of saline control group−wet weight of thrombus of administration group)/wet weight of thrombus of saline control group×100%.

normal human plasma = assay: PT assay in normal human plasma; assay type: biochemical; conditions: for PT: normal human plasma
Protocol: The recombinant anticoagulant polypeptides were expressed in Escherichia coli and purified in our laboratory. Anticoagulant activity was determined by measuring the aPTT and PT.
For the PT assay, 10 μl recombinant protein at various concentration was mixed with 45 μl normal human plasma and incubated for 15 mins at 37° C. 45 μl prewarmed PT reagent (MDC Hemostasis, Germany) was then added and the clotting time was measured with the absorbance at 630 nm by using an E1x808 kinetic microtiter reader (BioTek, United States). Each concentration was repeated 3 times.

human fXIIa = molecular target: T3, human fXIIa (Homo sapiens, UniProt P00748); assay: Chromogenic assay, fXIIa; assay type: biochemical
T3 construct: Human coagulation factors IIa (thrombin), Xa, XIa, XIIa, EGR-fXa; purchased Haematologic Technologies Inc (United States)
T3 sequence (P00748 373-615 limits assumed): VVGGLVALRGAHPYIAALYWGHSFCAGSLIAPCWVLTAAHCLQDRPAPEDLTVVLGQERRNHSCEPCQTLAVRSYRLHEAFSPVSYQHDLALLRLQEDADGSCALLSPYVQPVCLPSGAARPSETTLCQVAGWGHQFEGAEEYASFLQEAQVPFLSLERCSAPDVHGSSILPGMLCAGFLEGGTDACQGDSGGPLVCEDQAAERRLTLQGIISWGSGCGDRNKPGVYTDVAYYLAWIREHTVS
T3 sequence (P00748 20-372 limits assumed): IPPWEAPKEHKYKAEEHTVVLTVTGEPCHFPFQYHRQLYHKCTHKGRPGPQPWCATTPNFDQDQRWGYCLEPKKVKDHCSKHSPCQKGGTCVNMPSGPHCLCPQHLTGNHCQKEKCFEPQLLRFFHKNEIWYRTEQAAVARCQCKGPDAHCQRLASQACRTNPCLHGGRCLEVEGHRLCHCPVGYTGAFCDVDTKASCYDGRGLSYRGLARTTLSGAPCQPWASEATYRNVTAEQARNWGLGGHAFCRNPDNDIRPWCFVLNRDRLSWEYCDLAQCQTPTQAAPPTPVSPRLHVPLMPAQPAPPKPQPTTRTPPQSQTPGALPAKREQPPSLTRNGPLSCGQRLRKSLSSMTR
Excerpt: as §1, §2

SD rats [2] = assay: Rat inferior vena cava (venous) thrombosis; assay type: in vivo; conditions: for Thrombosis rate: rats with thrombus / rats, 4 hours after ligation
Protocol: 40 SPF grade male SD rats (provided by the laboratory animal center of Guangdong Medical College, 300-350 g body weight) were randomly divided into saline group, and rNAPTin-1 low-dose (100 μg·kg^−1), middle-dose (1 mg·kg^−1), high dose group (5 mg·kg^−1), 10 rats each group, respectively. These rats were anaesthetized with 10% chloral hydrate (250 mg/kg) by intraperitoneal injection. […] The abdominal cavity was reopened after 4 hours, and the ligated segment was opened longitudinally to check for whether there is thrombus.

human fXa = molecular target: T4, human fXa (Homo sapiens, UniProt P00742); assay: Chromogenic assay, fXa; assay type: biochemical
T4 construct: Human coagulation factors IIa (thrombin), Xa, XIa, XIIa, EGR-fXa; purchased Haematologic Technologies Inc (United States)
Excerpt: as §1, §2

T4 sequence (P00742 41-179 limits assumed): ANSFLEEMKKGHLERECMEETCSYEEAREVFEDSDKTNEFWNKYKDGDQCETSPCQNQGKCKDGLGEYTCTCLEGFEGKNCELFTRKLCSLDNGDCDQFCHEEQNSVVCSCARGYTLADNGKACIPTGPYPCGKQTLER
T4 sequence (P00742 235-488 limits assumed): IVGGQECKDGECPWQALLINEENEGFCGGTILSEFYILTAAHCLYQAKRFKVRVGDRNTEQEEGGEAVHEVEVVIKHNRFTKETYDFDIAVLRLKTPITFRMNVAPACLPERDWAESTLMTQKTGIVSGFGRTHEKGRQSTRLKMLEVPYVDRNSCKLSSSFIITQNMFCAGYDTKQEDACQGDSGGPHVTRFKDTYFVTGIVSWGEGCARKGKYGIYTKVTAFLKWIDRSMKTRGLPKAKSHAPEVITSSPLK
T2 sequence (P03951 19-387 limits assumed): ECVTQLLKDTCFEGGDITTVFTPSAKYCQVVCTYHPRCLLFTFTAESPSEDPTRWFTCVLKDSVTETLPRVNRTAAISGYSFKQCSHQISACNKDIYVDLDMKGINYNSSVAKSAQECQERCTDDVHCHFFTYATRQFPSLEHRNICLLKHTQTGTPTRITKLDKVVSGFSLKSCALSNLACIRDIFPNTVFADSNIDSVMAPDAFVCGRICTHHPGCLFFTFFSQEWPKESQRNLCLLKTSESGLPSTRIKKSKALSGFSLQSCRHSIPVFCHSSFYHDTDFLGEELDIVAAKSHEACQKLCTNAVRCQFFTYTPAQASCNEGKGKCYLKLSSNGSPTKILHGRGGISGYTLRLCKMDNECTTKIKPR
T2 sequence (P03951 388-625 limits assumed): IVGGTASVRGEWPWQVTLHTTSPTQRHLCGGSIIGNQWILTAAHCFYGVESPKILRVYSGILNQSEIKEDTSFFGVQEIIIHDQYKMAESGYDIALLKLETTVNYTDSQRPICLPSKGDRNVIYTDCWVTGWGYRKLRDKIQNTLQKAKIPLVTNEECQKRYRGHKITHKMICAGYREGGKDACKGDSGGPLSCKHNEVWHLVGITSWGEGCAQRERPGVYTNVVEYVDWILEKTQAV

B1: NAPTin-1 (protein)
chain: NPSCGENERHDECSRKECDPKCKYDGTEEKDDEKPVVCLTRVCYGDCICRDGFLRNKNGACVKAEDCELD
modifications: Sequence derived from Ancylostoma caninum or Synthetic
For B1, the “effect on fIIa activity (in words)” value (human fIIa (thrombin); 100 nM) was “without affecting”, the “effect on fIIa activity (in words)” value (human fIIa (thrombin); 200 nM) was “without affecting” and the “inhibition of the activity of fXIa” value (human fXIa; 100 nM) was “more than 90%”. For the same molecule, the “inhibition of the activity of fXIa (in words)” value (human fXIa; 200 nM) was “almost completely inhibited”, the “wet weight of thrombus” value (SD rats [1]; 100 μg·kg^−1 i.v.) was 8.5 ± 1.8 mg and the Inhibition rate % (SD rats [1]; 100 μg·kg^−1 i.v., vs saline control) was 80.5%. For the same molecule, the “wet weight of thrombus” value (SD rats [1]; 1 mg·kg^−1 i.v.) was 1.5 ± 0.3 mg, the Inhibition rate % (SD rats [1]; 1 mg·kg^−1 i.v., vs saline control) was 97% and the “wet weight of thrombus” value (SD rats [1]; 5 mg·kg^−1 i.v.) was 0.3 ± 0.2 mg. For the same molecule, the Inhibition rate % (SD rats [1]; 5 mg·kg^−1 i.v., vs saline control) was 99%, the “effect on arterio-venous shunt thrombosis (in words)” value (SD rats [1]; vs saline control, P<0.01) was “could inhibit rat arterio-venous shunt thrombosis” and the “prolongation of PT (in words)” value (normal human plasma; 100 nM and 500 nM) was “couldn't prolong PT”. For the same molecule, the “PT” value (normal human plasma; 100 nM) was 12.4 ± 0.9 s, the “PT” value (normal human plasma; 500 nM) was 12.1 ± 0.4 s and the “effect on fXIIa activity (in words)” value (human fXIIa; 100 nM) was “without affecting”. The “effect on fXIIa activity (in words)” value (human fXIIa; 200 nM) was “without affecting”, the “Inhibition rate %” value (SD rats [2]; 0.1 mg/kg i.v.) was 80% and the Thrombosis rate (SD rats [2]; 0.1 mg/kg i.v.) was 2/10*. For the same molecule, the “Inhibition rate %” value (SD rats [2]; 1.0 mg/kg i.v.) was 100%, the Thrombosis rate (SD rats [2]; 1.0 mg/kg i.v.) was 0/10* and the “Inhibition rate %” value (SD rats [2]; 5.0 mg/kg i.v.) was 100%. For the same molecule, the Thrombosis rate (SD rats [2]; 5.0 mg/kg i.v.) was 0/10*, the “effect on rat venous thrombosis (in words)” value (SD rats [2]; rat, in vivo) was “significant antithrombotic effect” and the “effect on fXa activity (in words)” value (human fXa; 100 nM) was “without affecting; also recorded: no significant inhibitory activity”. For the same molecule, the “effect on fXa activity (in words)” value (human fXa; 200 nM) was “without affecting”.
